{
  "source": "paper PMC11696170",
  "key": {"[1]": {"target": "AuraA, dimethylallyl tryptophan synthase (DMATS) family prenyltransferase (Penicillium solitum HDN11-131)"}, "[2]": {"target": "AuraA, dimethylallyl tryptophan synthase (DMATS) family prenyltransferase (Penicillium solitum HDN11-131)", "assay": "cryo-EM structure"}},
  "note": "Like-named read-outs stand apart in the source and are kept apart here.",
  "data": [
    {"substance": "AuraA, dimethylallyl tryptophan synthase (DMATS) family prenyltransferase (enzyme)", "values": [
      {"measurement": "stoichiometry N", "setting": "[1]", "value": 4},
      {"measurement": "stoichiometry N", "setting": "[2]", "value": 4}
    ]}
  ]
}
